Assay results as given in patent US7125658B2, “Small protein that interacts with a ribonucleotide reductase subunit and uses thereof” (The Trustees of Columbia University in the City of New York, priority 1998, dated 2006).

How the values were obtained:
GAD = target: T1, GAD (Saccharomyces cerevisiae, UniProt P04386); assay: yeast two-hybrid assay against GAD alone; type: cell-based
T1 construct: expressed in transfected cells; host or cells: S. cerevisiae two-hybrid strain PJ69-4A
T1 sequence (P04386 768-881 limits assumed): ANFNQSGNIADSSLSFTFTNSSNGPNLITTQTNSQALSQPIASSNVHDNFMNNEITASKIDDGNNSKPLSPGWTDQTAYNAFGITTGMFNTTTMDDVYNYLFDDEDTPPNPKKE
From the text: (§1) The strains and plasmids for two-hybrid analysis were PJ69-4A, pGBD-C2, pGAD-C2 (James et al., 1996) and pACTII (CLONTECH® Inc.). The primer pair pB-SML1 5′ (SEQ ID NO: 11) and pGBD-SML1 3′ (SEQ ID NO: 13) (Table 4) was used to amplify the SML1 ORF. After digestion with BamHI and PstI, this PCR product was cloned into the BamHI-PstI sites of pGBD-C2 to construct plasmid pWJ728. Similarly, plasmid pWJ684 contains a BamHI fragment from the PCR product of the SML1 ORF generated using the primer pair pB-SML1 5′ and pB-SML1 3′ (SEQ ID NO: 12) (Table 4) and inserted at the BamHI site of pACTII. PCR fragments containing the RNR1 or the RNR2 ORF were generated by primer pairs RNR1-ORF 5′ (SEQ ID NO: 14) and RNR1 3′ (SEQ ID NO: 15) or RNR2-ORF 5′ (SEQ ID NO: 17) and RNR2 3′ (SEQ ID NO: 16) (Table 4). These fragments were cloned into the BamHI-PstI site of pGBD-C2 and pGAD-C2 to construct pWJ731 and pWJ745 or pWJ729 and pWJ746 respectively.
(§2) The GAL1-HIS3 reporter was assayed on SC-HIS-LEU-TRP medium plus 1-2 mM 3-aminotriazole. The GAL2-ADE2 reporter was assayed on SC-ADE-LEU-TRP medium.

GAD-SML1 = target: T2, GAD-SML1 (Saccharomyces cerevisiae, UniProt Q04964); assay: yeast two-hybrid assay against GAD-SML1; type: cell-based
T2 construct: expressed in transfected cells; host or cells: S. cerevisiae two-hybrid strain PJ69-4A
T2 sequence (Q04964 1-104): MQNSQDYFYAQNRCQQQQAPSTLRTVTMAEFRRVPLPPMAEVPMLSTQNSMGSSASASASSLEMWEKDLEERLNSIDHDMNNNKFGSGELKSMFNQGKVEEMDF
From the text: as §1, §2

GAD-RNR2 = target: T3, GAD-RNR2 (Saccharomyces cerevisiae, UniProt P09938); assay: yeast two-hybrid assay against GAD-RNR2; type: cell-based; design: key to HIS3 reporter / ADE2 reporter: + signifies growth on histidine-less and adenine-less media; +/− signifies constructs unable to grow on adenine-less medium but able to give rise to white colonies on YPD medium
T3 construct: expressed in transfected cells; host or cells: S. cerevisiae two-hybrid strain PJ69-4A
T3 sequence (P09938 1-399): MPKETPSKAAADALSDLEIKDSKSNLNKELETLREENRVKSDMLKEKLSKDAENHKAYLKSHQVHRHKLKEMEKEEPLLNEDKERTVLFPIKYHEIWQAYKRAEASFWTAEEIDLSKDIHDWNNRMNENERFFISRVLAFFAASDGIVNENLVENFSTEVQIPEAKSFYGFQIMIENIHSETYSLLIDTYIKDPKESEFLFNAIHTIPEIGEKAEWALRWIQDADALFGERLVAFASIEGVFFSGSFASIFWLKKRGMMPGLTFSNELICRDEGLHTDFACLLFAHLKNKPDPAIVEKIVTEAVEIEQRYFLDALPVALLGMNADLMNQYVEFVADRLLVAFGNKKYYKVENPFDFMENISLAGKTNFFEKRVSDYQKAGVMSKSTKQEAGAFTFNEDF
From the text: as §1, §2

[1] = target: GAD-Sml1 two-hybrid fusion (plasmid pWJ684, pACTII) (Saccharomyces cerevisiae (yeast)) (UniProt Q04964); assay: cell-based or functional assay
[2] = target: T4, GAD-Rnr1 two-hybrid fusion (plasmid pWJ745) (yeast (Saccharomyces cerevisiae), UniProt P21524 1-888); assay: cell-based or functional assay
T4 sequence (looked up): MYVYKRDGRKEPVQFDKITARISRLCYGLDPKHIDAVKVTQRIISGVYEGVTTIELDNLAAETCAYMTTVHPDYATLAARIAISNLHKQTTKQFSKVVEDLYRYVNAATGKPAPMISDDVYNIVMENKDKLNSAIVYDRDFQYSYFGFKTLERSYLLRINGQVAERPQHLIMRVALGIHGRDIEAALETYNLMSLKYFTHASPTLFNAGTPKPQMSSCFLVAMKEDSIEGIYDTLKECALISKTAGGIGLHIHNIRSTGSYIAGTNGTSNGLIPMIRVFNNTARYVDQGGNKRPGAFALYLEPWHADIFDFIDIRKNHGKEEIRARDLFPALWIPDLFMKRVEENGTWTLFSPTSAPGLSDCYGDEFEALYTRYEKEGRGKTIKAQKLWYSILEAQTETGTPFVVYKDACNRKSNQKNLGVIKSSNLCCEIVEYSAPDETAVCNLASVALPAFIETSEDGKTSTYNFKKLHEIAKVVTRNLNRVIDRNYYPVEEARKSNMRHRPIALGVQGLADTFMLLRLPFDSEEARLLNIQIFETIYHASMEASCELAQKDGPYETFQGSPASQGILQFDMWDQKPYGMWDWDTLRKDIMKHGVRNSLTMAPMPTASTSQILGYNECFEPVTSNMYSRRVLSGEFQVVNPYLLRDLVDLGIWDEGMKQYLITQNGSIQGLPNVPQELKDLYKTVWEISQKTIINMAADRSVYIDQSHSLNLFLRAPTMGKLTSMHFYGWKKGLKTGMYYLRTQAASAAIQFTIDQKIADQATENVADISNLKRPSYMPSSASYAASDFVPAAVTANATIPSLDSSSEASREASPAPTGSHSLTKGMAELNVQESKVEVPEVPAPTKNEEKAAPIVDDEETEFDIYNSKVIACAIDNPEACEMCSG

[3] = target: T5, GAD-Sml1 two-hybrid fusion (plasmid pWJ684, pACTII) (Saccharomyces cerevisiae (yeast), UniProt Q04964 1-104); assay: cell-based or functional assay
T5 sequence: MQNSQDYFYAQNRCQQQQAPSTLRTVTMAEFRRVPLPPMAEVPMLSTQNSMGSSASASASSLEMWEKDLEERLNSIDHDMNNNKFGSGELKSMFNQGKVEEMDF

[4] = target: T6, GAD (Gal4 activation domain alone, empty vector control) (UniProt P04386 768-881); assay: cell-based or functional assay
T6 sequence (looked up): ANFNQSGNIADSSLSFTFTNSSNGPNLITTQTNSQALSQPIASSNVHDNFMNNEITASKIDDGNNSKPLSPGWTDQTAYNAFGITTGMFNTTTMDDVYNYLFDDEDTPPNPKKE

“RNR2: GBD (Gal4 DNA binding domain) fusion of the RNR2 ORF in pGBD-C2, two-hybrid construct (GAFTFNEDF)” was tested, and the LacZ activity (GAD) was 1.4 ± 0.1 Miller Units, the LacZ activity (GAD-SML1) was 0.9 ± 0.4 Miller Units and the LacZ activity (GAD-RNR2) was 2.3 ± 0.4 Miller Units. The ADE2 reporter (GAD-RNR2; SC-ADE-LEU-TRP) was “+/−” and the HIS3 reporter (GAD-RNR2; SC-HIS-LEU-TRP plus 3-aminotriazole) was “+”.

“GBD vector (Gal4 DNA binding domain alone, empty vector control) (from UniProt P04386 1-147)” showed a two-hybrid LacZ activity [1] of 0.4 Miller Units.

B1: GBD-Rnr1 two-hybrid fusion (plasmid pWJ731) (other, UniProt P04386 1-147, looked up)
chain: MKLLSSIEQACDICRLKKLKCSKEKPKCAKCLKNNWECRYSPKTKRSPLTRAHLTEVESRLERLEQLFLLIFPREDLDMILKMDSLQDIKALLTGLFVQDNVNKDAVTDRLASVETDMPLTLRQHRISATSSSEESSNKGQRQLTVSMYVYKRDGRKEPVQFDKITARISRLCYGLDPKHIDAVKVTQRIISGVYEGVTTIELDNLAAETCAYMTTVHPDYATLAARIAISNLHKQTTKQFSKVVEDLYRYVNAATGKPAPMISDDVYNIVMENKDKLNSAIVYDRDFQYSYFGFKTLERSYLLRINGQVAERPQHLIMRVALGIHGRDIEAALETYNLMSLKYFTHASPTLFNAGTPKPQMSSCFLVAMKEDSIEGIYDTLKECALISKTAGGIGLHIHNIRSTGSYIAGTNGTSNGLIPMIRVFNNTARYVDQGGNKRPGAFALYLEPWHADIFDFIDIRKNHGKEEIRARDLFPALWIPDLFMKRVEENGTWTLFSPTSAPGLSDCYGDEFEALYTRYEKEGRGKTIKAQKLWYSILEAQTETGTPFVVYKDACNRKSNQKNLGVIKSSNLCCEIVEYSAPDETAVCNLASVALPAFIETSEDGKTSTYNFKKLHEIAKVVTRNLNRVIDRNYYPVEEARKSNMRHRPIALGVQGLADTFMLLRLPFDSEEARLLNIQIFETIYHASMEASCELAQKDGPYETFQGSPASQGILQFDMWDQKPYGMWDWDTLRKDIMKHGVRNSLTMAPMPTASTSQILGYNECFEPVTSNMYSRRVLSGEFQVVNPYLLRDLVDLGIWDEGMKQYLITQNGSIQGLPNVPQELKDLYKTVWEISQKTIINMAADRSVYIDQSHSLNLFLRAPTMGKLTSMHFYGWKKGLKTGMYYLRTQAASAAIQFTIDQKIADQATENVADISNLKRPSYMPSSASYAASDFVPAAVTANATIPSLDSSSEASREASPAPTGSHSLTKGMAELNVQESKVEVPEVPAPTKNEEKAAPIVDDEETEFDIYNSKVIACAIDNPEACEMCSG
In the case of B1, the “two-hybrid LacZ activity” value [2] is reported as 2.9 Miller Units, the “two-hybrid LacZ activity” value [3] is reported as 85 Miller Units and the “two-hybrid LacZ activity” value [4] is reported as 0.8 Miller Units.
